From patent publication US20050053985A1 (PTC THERAPEUTICS, published 2005)

B1: His-Flag-HsSen2deltaEx8 (other, not shown: small tags and cut ends)
chain: MAEAVFHAPKRKRRVYETYESPLPIPFGQDHGPLKEFKIFRAEMINNNVIVRNAEDIEQLYGKGYFGKGILSRSRPSFTISDPKLVAKWKDMKTNMPIITSKRYQHSVEWAAELMRRQGQDESTVRRILKDYTKPLEHPPVKRNEEAQVHDKLNSGMVSNMEGTAGGERPSVVNGDSGKSGGVGDPREPLGCLQEGSGCHPTTESFEKSVREDASPLPHVCCCKQDALILQRGLHHEDGSQHIGLLHPGDRGPDHEYVLVEEAECAMSEREAAPNEELVQRNRLICRRNPYRIFEYLQLSLEEEPLTIVKLWKAFTVVQPTFRTTYMAYHYFRSKGWVPKVGLKYGTDLLLYRKGPPFYHASYSVIIELVDDHFEGSLRRPLSWKSLAALSRVSVNVSKELMLCYLIKPSTMTDKEMESPECMKRIKVQEVILSRWVSSRERSDQDDL
notes: also called His-Flag-Sen2ΔEx8; His-Flag-Sen2deltaEx8
B2: His-Flag-HsSen2 (other, not shown: small tags and cut ends)
chain: MAEAVFHAPKRKRRVYETYESPLPIPFGQDHGPLKEFKIFRAEMINNNVIVRNAEDIEQLYGKGYFGKGILSRSRPSFTISDPKLVAKWKDMKTNMPIITSKRYQHSVEWAAELMRRQGQDESTVRRILKDYTKPLEHPPVKRNEEAQVHDKLNSGMVSNMEGTAGGERPSVVNGDSGKSGGVGDPREPLGCLQEGSGCHPTTESFEKSVREDASPLPHVCCCKQDALILQRGLHHEDGSQHIGLLHPGDRGPDHEYVLVEEAECAMSEREAAPNEELVQRNRLICRRNPYRIFEYLQLSLEEAFFLVYALGCLSIYYEKEPLTIVKLWKAFTVVQPTFRTTYMAYHYFRSKGWVPKVGLKYGTDLLLYRKGPPFYHASYSVIIELVDDHFEGSLRRPLSWKSLAALSRVSVNVSKELMLCYLIKPSTMTDKEMESPECMKRIKVQEVILSRWVSSRERSDQDDL
notes: Bait expressed stably in 293 cells and purified with its partners over anti-Flag and Ni beads; also called His-Flag-Sen2; His-Flag-Sen2WT
B3: His-Flag-HsSen34 (other, not shown: small tags and cut ends)
chain: MLVVEVANGRSLVWGAEAVQALRERLGVGGRTVGALPRGPRQNSRLGLPLLLMPEEARLLAEIGAVTLVSAPRPDSRHHSLALTSFKRQQEESFQEQSALAAEARETRRQELLEKITEGQAAKKQKLEQASGASSSQEAGSSQAAKEDETSDGQASGEQEEAGPSSSQAGPSNGVAPLPRSALLVQLATARPRPVKARPLDWRVQSKDWPHAGRPAHELRYSIYRDLWERGFFLSAAGKFGGDFLVYPGDPLRFHAHYIAQCWAPEDTIPLQDLVAAGRLGTSVRKTLLLCSPQPDGKVVYTSLQWASLQ
notes: Bait expressed stably in 293 cells; also called His-Flag-Sen34; His-Flag-34
B4: His-Flag-HsSen15 (other)
chain: MEERGDSEPTPGCSGLGPGGVRGFGDGGGAPSWAPEDAWMGTHPKYLEMMELDIGDATQVYVAFLVYLDLMESKSWHEVNCVGLPELQLICLVGTEIEGEGLQTVVPTPITASLSHNRIREILKASRKLQGDPDLPMSFTLAIVESDSTIVYYKLTDGFMLPDPQNISLRR
notes: Bait expressed stably in 293 cells; also called His-Flag-Sen15; tagged HsSen15; not shown: His and Flag tag from the His-Flag-pcDNA3.1/Hygro vector

target: SmB/B′ proteins (human, UniProt P14678 1-240); test: co-purification with the His-Flag-tagged bait from stable 293 cells (anti-Flag beads, then Ni beads); SDS-PAGE, Western blot with Y12 antibody (SmB/B′)
Protocol: Proteins co-purified with His-Flag-HsSen2, His-Flag-HsSen2deltaEx8, His-Flag-HsSen34, His-Flag-HsSen15 and His-Flag-HsClp1 were analyzed by SDS-PAGE followed by Western blotting with antibodies against Symplekin, CstF64. Y12 antibody that recognizes SmB/B′ proteins was used a negative control.
Complexes purified using the different epitope-tagged subunits of the endonuclease complexes were analyzed by Western blotting using antibodies specific for Symplekin and CstF64, components of the human pre-mRNA 3′-end processing complex. Y12 antibody (known to recognize pre-mRNA splicing snRNP […] proteins) was used as a negative control. […] Similar amounts of 3′-end complexes were purified from all His-Flag-tagged tRNA endonuclease subunits. Since the purification conditions were very stringent and utilized two affinity chromatography steps (see experimental procedures), the interaction between tRNA splicing endonuclease and pre-mRNA 3′-end processing factors is quite robust. Immunoprecipitation under standard salt conditions to more accurately determine the amount of 3′-end factors associated with the tRNA endonuclease was also performed. It was shown that as much as 1% of the 3′-end processing factors are associated with the tRNA endonuclease. […] Furthermore, His-Flag-HsSen2deltaEx8 and His-Flag-HsClp1 were able to associate with a larger proportion of the 3′-end formation complexes (FIG. 29, compare lane 8 and 11 to 7, 9, 10). [0764] 5.2.2.7 Depletion of SEN2 Causes Defects in tRNA Splicing and Pre-mRNA 3′ end Formation

Binding result, no binding:
B1
B2
B3
B4
